Here are results for one molecule from patent US20240277803A1, “NME INHIBITORS AND METHODS OF USING NME INHIBITORS” (Minerva Biotechnologies Corporation, priority 2013, published 2024).

The test system of one assay is Human stem cells (iPS). Briefly: human iPS stem cell culture in NME7-AB or NM23-H1 dimers. It is filed as cell-based. Here is the method: Testing recombinant NME7 for ability to maintain pluripotency and inhibit differentiation. A soluble variant of NME7, NME7-AB, was generated and purified. Human stem cells (iPS cat #SC101a-1, System Biosciences) were grown per the manufacturer's directions in 4 ng/ml bFGF over a layer of mouse fibroblast feeder cells for four passages. These source stem cells were then plated into 6-well cell culture plates (Vita™, Thermo Fisher) that had been coated with 12.5 ug/well of a monoclonal anti-MUC1* antibody, MN-C3. Cells were plated at a density of 300,000 cells per well. The base media was Minimal Stem Cell Media consisting of: 400 ml DME/F12/GlutaMAX I (Invitrogen #10565-018), 100 ml Knockout Serum Replacement (KO-SR, Invitrogen #10828-028), 5 ml 100×MEM Non-essential Amino Acid Solution (Invitrogen#11140-050) and 0.9 ml (0.1 mM) β-mercaptoethanol (55 mM stock, Invitrogen #21985-023). The base media can be any media. In a preferred embodiment, the base media is free of other growth factors and cytokines. To the base media was added either 8 nM of NME7-AB or 8 nM NM23-H1 refolded and purified as stable dimers. Media was changed every 48 hours and due to accelerated growth had to be harvested and passaged at Day 3 post-plating. FIGS. 9 and 10 document the day by day comparison of growth in NM23-H1 dimers to growth in NME7 monomers. […] Cell counts at the first harvest verified that culture in NME7 produced 1.4-times more cells than culture in NM23-H1 dimers.

Assay [1] has as its target T1, MUC1* extra cellular domain peptide (Homo sapiens, UniProt P15941).
T1 sequence (P15941 with tags, fused parts or gaps): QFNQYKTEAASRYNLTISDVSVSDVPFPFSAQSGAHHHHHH
Kind of assay: gold nanoparticle binding assay, NME7 and MUC1* peptide (FIG. 7). Conditions: protein added free in solution. On the procedure: Gold nanoparticles of a diameter of 30.0 nm were coated with an NTA-SAM surface according to Thompson et al. (ACS Appl. Mater. Interfaces, 2011, 3 (8), pp 2979-2987). The NTA-SAM coated gold nanoparticles were then activated with an equal volume of 180 uM NiSO4, incubated for 10 min at room temperature, washed, and resuspended in a 10 mM phosphate buffer ([…]). The gold nanoparticles were then loaded with PSMGER N-10 peptide ([…] (SEQ ID NO:155)) at 0.5 uM final concentration, and incubated at room temperature for 10 min. Recombinant NME7-AB protein expressed and purified from E. coli was added free in solution at the concentrations indicated. When particle-immobilized proteins bind to each other, or simultaneously bind to two different peptides on two different particles, the particle solution color changes from pink/red to purple/blue. If the protein added free in solution causes particle aggregation, it is strong evidence that the free protein dimerizes the cognate peptide, since binding to a single peptide would not induce two or more particles to be brought into close proximity to each other.
The NME7-AB is added free in solution at the concentrations indicated. Solution color change from pink to purple/blue from particle aggregation indicates binding between the MUC1* peptide on the particles and NME7 free in solution. […] Particle aggregation, indicating NME7 can simultaneously bind to two peptides is observed. […] The T47D breast cancer cell line Lysate, which contains native NME7 turns noticeably purple also.

For assay [2], the target named is T2, MUC1* extra cellular domain peptides (Homo sapiens, UniProt P15941).
T2 sequence (P15941 1110-1154): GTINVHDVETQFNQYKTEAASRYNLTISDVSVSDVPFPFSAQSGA
Briefly: ELISA sandwich assay, NME7-AB dimerizes MUC1* peptide (FIG. 8). Format: binding. The source says:
We made several constructs for expression of a human NME7. One of these constructs expressed well in E. coli, was secreted in soluble form as a monomer and functioned approximately as NME1 dimers did for promoting stem cell growth, pluripotency and inhibition of differentiation. In this construct, the leader sequence “DM10” was omitted from the sequence. This generated a species that was approximately the same molecular weight, 33 kDa, as the secreted form of the protein. The protein was made as a Histidine tagged protein and first purified over an NTA-Ni column, then by FPLC with greater than 98% purity. We call this form of NME7, NME7-AB. […]
The PSMGFR peptide bearing a C-terminal Cysteine (PSMGFR-Cys) was covalently coupled to BSA using Imject Maleimide activated BSA kit (Thermo Fisher). […] After 1h at RT the plate was washed 3× with PBS-T and binding of NME7 was measured at 415 nm using a ABTS solution (Pierce). […]
After 1h at RT the plate was washed 3× with PBS-T and HisTagged PSMGFR peptide (PSMGFR-His) or biotinylated PSMGFR peptide (PSMGFR-biotin), diluted in PBS-T+1% BSA, was added at different concentration. […] After 1h at RT the plate was washed 3× with PBS-T and binding of PSMGFR peptide to NME7 already bound to another PSMGFR peptide (which could not signal by anti-His antibody or by streptavidin) coupled BSA was measured at 415 nm using a ABTS solution (Pierce).
Background: ELISA stands for enzyme-linked immunosorbent assay.

B1: NME7-AB: recombinant human NME7 of NDPK A and B domains without the DM10 leader sequence, ~33 kDa (SEQ ID NO:39) (protein, listed as Homo sapiens)
chain: MEKTLALIKPDAISKAGEIIEIINKAGFTITKLKMMMLSRKEALDFHVDHQSRPFFNELIQFITTGPIIAMEILRDDAICEWKRLLGPANSGVARTDASESIRALFGTDGIRNAAHGPDSFASAAREMELFFPSSGGCGPANTAKFTNCTCCIVKPHAVSEGLLGKILMAIRDAGFEISAMQMFNMDRVNVEEFYEVYKGVVTEYHDMVTEMYSGPCVAMEIQQNNATKTFREFCGPADPEIARHLRPGTLRAIFGKTKIQNAVHCTDLPEDGLLEVQYFFKILDN
modifications: Human NME7-AB
With B1, the “stem cell growth, pluripotency and differentiation” value with Human stem cells (iPS) (8 nM in minimal media over MN-C3 surface) was “fully supported human stem cell growth”. Moreover, the “cells produced relative to culture in NM23-H1 dimers (cell counts at first harvest)” value with Human stem cells (iPS) (8 nM, Day 3 post-plating) is reported as 1.4 times. Moreover, the “binding to MUC1* peptide on nanoparticles (color change pink to purple/blue)” value is on record as “turned purple almost immediately” in assay [1] and “has two binding sites for the MUC1* peptide” in assay [1] (listed as NME7). Further, the “simultaneous binding of two MUC1* extra cellular domain peptides (ELISA)” value in assay [2] is “can simultaneously bind two MUC1* extra cellular domain peptides”.
